Measurements as given in PMC4135013.
pKd: −log10 of the molar value.

What was measured:
[1] = biological target: soluble form of recombinant mouse CD16 (sCD16) (mouse); assay: ELISA
[2] = biological target: soluble form of recombinant mouse CD16 (sCD16) (mouse); assay: SPR

pKd [1]	pKd [2]	Substance
7.05	–	OVA-IC (soluble immune complex of OVA and rabbit anti-OVA IgG) (from UniProt P01012 1-386)
–	4.60	malondialdehyde-modified low-density lipoprotein (MDALDL)
–	7.11	peroxidase/anti-peroxidase immune complex (PAP-IC)
